Measured values taken from PMC5336186 (Nature cell biology, 2017).

What was measured:
[1] = target: T1, GST-LLGL2, unphosphorylated (No-P) (UniProt Q6P1M3 1-1020); experiment: pull-down
T1 sequence (looked up): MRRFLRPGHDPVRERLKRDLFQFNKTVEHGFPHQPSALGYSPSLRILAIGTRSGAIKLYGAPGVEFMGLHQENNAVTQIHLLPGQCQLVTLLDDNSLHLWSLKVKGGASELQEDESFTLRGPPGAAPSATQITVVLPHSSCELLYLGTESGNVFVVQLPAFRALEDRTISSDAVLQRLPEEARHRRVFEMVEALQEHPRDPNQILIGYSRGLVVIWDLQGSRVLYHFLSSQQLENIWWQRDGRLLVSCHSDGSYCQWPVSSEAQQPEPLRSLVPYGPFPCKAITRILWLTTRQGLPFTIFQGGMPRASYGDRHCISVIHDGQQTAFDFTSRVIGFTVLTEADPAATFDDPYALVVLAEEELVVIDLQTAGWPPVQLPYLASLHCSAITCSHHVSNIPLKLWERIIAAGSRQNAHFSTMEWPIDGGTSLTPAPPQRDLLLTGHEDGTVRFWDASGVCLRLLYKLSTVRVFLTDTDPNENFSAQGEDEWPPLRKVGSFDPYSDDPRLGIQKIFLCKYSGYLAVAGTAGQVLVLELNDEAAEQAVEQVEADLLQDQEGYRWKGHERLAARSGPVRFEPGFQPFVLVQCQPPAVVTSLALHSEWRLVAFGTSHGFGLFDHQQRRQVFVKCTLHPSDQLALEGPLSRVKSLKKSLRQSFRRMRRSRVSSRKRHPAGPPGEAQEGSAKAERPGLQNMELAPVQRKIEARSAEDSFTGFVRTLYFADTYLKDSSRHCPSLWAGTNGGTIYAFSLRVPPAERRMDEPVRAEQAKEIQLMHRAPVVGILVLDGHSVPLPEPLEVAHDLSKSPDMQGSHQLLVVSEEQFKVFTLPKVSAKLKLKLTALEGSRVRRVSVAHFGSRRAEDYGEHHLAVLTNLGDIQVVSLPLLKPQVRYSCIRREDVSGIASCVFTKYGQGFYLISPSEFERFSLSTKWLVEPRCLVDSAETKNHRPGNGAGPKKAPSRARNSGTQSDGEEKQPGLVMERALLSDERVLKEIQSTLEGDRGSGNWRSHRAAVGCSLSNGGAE

[2] = target: T2, GST-LLGL2 phosphorylated at Tyr499 (P-LLGL2) (UniProt Q6P1M3 1-1020, phosphotyrosine at Tyr499); experiment: pull-down
T2 sequence (looked up): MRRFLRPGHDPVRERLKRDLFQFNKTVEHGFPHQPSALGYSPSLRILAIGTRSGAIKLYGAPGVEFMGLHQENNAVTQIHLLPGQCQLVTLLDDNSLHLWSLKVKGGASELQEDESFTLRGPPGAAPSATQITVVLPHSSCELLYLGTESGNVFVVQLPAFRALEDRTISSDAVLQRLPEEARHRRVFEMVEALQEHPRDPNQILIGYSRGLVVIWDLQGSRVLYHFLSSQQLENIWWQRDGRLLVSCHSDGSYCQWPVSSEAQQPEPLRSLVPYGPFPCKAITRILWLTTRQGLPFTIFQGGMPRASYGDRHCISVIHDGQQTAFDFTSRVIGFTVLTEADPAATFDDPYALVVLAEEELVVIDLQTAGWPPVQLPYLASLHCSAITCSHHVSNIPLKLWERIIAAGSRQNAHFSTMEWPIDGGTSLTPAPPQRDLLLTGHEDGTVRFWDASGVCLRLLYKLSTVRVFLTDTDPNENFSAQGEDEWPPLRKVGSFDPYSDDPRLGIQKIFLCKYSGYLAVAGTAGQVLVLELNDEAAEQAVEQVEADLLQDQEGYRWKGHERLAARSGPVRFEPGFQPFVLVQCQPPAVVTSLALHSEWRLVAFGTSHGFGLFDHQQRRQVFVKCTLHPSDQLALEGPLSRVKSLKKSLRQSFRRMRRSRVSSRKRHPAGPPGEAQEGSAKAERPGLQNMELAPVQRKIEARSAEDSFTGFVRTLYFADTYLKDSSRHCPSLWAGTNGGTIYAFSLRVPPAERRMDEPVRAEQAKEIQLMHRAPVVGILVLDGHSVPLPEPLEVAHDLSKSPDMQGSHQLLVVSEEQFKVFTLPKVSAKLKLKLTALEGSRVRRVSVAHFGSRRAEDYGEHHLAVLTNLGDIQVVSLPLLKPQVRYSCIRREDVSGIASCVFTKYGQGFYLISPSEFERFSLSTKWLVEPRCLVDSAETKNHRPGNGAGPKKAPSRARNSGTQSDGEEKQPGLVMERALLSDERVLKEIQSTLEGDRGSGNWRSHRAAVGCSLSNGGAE

binding result [1]: binds
binding result [2]: binds
B1: recombinant BCAR3 (natural protein, UniProt O75815 1-825, looked up)
chain: MAAGKFASLPRNMPVNHQFPLASSMDLLSSRSPLAEHRPDAYQDVSIHGTLPRKKKGPPPIRSCDDFSHMGTLPHSKSPRQNSPVTQDGIQESPWQDRHGETFTFRDPHLLDPTVEYVKFSKERHIMDRTPEKLKKELEEELLLSSEDLRSHAWYHGRIPRQVSENLVQRDGDFLVRDSLSSPGNFVLTCQWKNLAQHFKINRTVLRLSEAYSRVQYQFEMESFDSIPGLVRCYVGNRRPISQQSGAIIFQPINRTVPLRCLEEHYGTSPGQAREGSLTKGRPDVAKRLSLTMGGVQAREQNLPRGNLLRNKEKSGSQPACLDHMQDRRALSLKAHQSESYLPIGCKLPPQSSGVDTSPCPNSPVFRTGSEPALSPAVVRRVSSDARAGEALRGSDSQLCPKPPPKPCKVPFLKVPSSPSAWLNSEANYCELNPAFATGCGRGAKLPSCAQGSHTELLTAKQNEAPGPRNSGVNYLILDDDDRERPWEPAAAQMEKGQWDKGEFVTPLLETVSSFRPNEFESKFLPPENKPLETAMLKRAKELFTNNDPKVIAQHVLSMDCRVARILGVSEEMRRNMGVSSGLELITLPHGHQLRLDIIERHNTMAIGIAVDILGCTGTLEDRAATLSKIIQVAVELKDSMGDLYSFSALMKALEMPQITRLEKTWTALRHQYTQTAILYEKQLKPFSKLLHEGRESTCVPPNNVSVPLLMPLVTLMERQAVTFEGTDMWEKNDQSCEIMLNHLATARFMAEAADSYRMNAERILAGFQPDEEMNEICKTEFQMRLLWGSKGAQVNQTERYEKFNQILTALSRKLEPPPVKQAEL
